The assay concerns the target sodium/potassium-transporting ATPase ATP1A3, F309S mutant, V5-tagged (human, UniProt P13637-3 1-1026, F309S). The experiment in a line: co-IP.

B1: TOMM22, GFP-tagged (natural protein, UniProt Q9NS69 1-142, looked up)
chain: MAAAVAAAGAGEPQSPDELLPKGDAEKPEEELEEDDDEELDETLSERLWGLTEMFPERVRSAAGATFDLSLFVAQKMYRFSRAALWIGTTSFMILVLPVVFETEKLQMEQQQQLQQRQILLGPNTGLSGGMPGALPSLPGKI
For B1, the “reduction of the interaction against WT ATP1A3” value is about 50%.

Values taken from PMC8938308 (Human genetics, 2021).
